Data reported in doi:10.1101/2020.06.17.158394 (bioRxiv, 2020).

Columns and labels:
KaiC = biological target: T1, KaiC (S. elongatus, UniProt Q79PF4 1-519); assay: fluorescence polarisation
T1 sequence: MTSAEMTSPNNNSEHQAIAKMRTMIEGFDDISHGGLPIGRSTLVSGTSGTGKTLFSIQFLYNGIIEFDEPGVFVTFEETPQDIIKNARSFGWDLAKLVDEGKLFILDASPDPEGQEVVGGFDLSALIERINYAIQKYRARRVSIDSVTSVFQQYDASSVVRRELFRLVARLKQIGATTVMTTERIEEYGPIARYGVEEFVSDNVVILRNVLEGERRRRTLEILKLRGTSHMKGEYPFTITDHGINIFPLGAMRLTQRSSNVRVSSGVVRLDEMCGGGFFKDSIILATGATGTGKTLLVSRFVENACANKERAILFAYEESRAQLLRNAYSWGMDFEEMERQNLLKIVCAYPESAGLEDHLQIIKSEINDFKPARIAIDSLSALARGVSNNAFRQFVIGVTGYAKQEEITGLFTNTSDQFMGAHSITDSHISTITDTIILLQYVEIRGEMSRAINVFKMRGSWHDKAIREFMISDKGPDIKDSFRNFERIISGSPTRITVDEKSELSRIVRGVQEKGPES

KaiC-EE (S. elongatus) = KaiC-EE (S. elongatus) (UniProt Q79PF4); assay: fluorescence polarisation

- binding result (KaiC): binds
- fold increase in affinity against SasAtrx (KaiC-EE (S. elongatus)): > 100 fold
B1: full-length SasA (enzyme)
chain: MGESLSPQALAQPLLLQLFVDTRPLSQHIVQRVKNILAAVEATVPISLQVINVADQPQLVEYYRLVVTPALVKIGPGSRQVLSGIDLTDQLANQLPQWLVQQEAFFADREPPEVNIPFTELGQPETPALQQADAFFQLQQQYADLSERTKFLEQVIALVAHDLRNPLTAALLAVDTIQIRSQSFSVATAKEMQGLCSLFDQARSQLREIERMIAEILEATRHSGESLRINPREVVFEPLLQQVLEQLHERWRSKQQQLITDVPGDLPTLYADPDRLRQVLVNLLDNAIKYTPPGGTITIAALHRTSQKVQISISDTGSGIPRDQLSVIFKNLVRLSRDSSQEGYGIGLSVCQRIVQAHFGRIWVASELGQGSTFHFTMPVYRYTMPC
